Source: patent US20180335429

Biological target: T1, MMP substrate, 5-FAM-GGPLGVRGKK(CPQ2)-PEG2-C, presented on the iron-oxide nanoparticle (ABN) surface (not fully specified)
T1 chain: GGPLGVRGKKC

B1: mouse MMP9 (protein)
chain: APYQRQPTFVVFPKDLKTSNLTDTQLAEAYLYRYGYTRAAQMMGEKQSLRPALLMLQKQLSLPQTGELDSQTLKAIRTPRCGVPDVGRFQTFKGLKWDHHNITYWIQNYSEDLPRDMIDDAFARAFAVWGEVAPLTFTRVYGPEADIVIQFGVAEHGDGYPFDGKDGLLAHAFPPGAGVQGDAHFDDDELWSLGKGVVIPTYYGNSNGAPCHFPFTFEGRSYSACTTDGRNDGTPWCSTTADYDKDGKFGFCPSERLYTEHGNGEGKPCVFPFIFEGRSYSACTTKGRSDGYRWCATTANYDQDKLYGFCPTRVDATVVGGNSAGELCVFPFVFLGKQYSSCTSDGRRDGRLWCATTSNFDTDKKWGFCPDQGYSLFLVAAHEFGHALGLDHSSVPEALMYPLYSYLEGFPLNKDDIDGIQYLYGRGSKPDPRPPATTTTEPQPTAPPTMCPTIPPTAYPTVGPTVGPTGAPSPGPTSSPSPGPTGAPSPGPTAPPTAGSSEASTESLSPADNPCNVDVFDAIAEIQGALHFFKDGWYWKFLNHRGSPLQGPFLTARTWPALPATLDSAFEDPQTKRVFFFSGRQMWVYTGKTVLGPRSLDKLGLGPEVTHVSGLLPRRLGKALLFSKGRVWRFDLKSQKVDPQSVIRVDKEFSGVPWNSHDIFQYQDKAYFCHGKFFWRVSFQNEVNKVDHEVNQVDDVGYVTYDLLQCP
cleavage of the substrate: it was confirmed that mouse MMP9 cleaves the ABN MMP9 substrate
